Laboratory results taken from PMC3813429, “New Insight to Structure-Function Relationship of GalNAc Mediated Primary Interaction between Insecticidal Cry1Ac Toxin and HaALP Receptor of Helicoverpa armigera” (PLoS ONE, 2013).

Target: Cry1Ac WT toxin (Bacillus thuringiensis)
Test: SPR
Conditions: both partners purified

B1: HaALP, membrane bound alkaline phosphatase of Helicoverpa armigera (receptor)
chain: HWLHPAAPAAASRAETSANYWAQDAQAAINARLERVESVKKAHNVIMFLGDGMSVPTLAAARTLLGQRQGKTGEETKLHFETFPTIGLVKTYCVDAQIADSACTATAYLCGVKNNYGAIGVDGTVRRGDCQAASNTATHVESIAEWALADGRDVGIVTTTRITHASPAGTFAKTANRTWENDGEVSQMGLDAKDCPDIAHQLVHHHPGNKFKVIFGGGRRAFLPNTVQDDEGSYGRRIDNRDLIQEWKNDKDSRNVSHQYLWQREQLMNLNDDLPEYMLGLFESSHMEYHLKSDPQTEPTLAELTEVAIRSLRRNEKGFFLFVEGGRIDHAHHDNLVELALDETLEMDKAVATATKMLSEDDSLIVVTADHAHVMTINGYSGRGNDILGPSRDVGRDRMPYMTLSYTNGPGFRPHVNDIRQNVTAEPNYRTLDWESHVDVPLVDETHGGDDVAVFARGPHHSMFTGLYEQSQLPHLMAYAACIGPGRHACASAAHLPSAHFFVALPALFISILLR
modifications: glycan with α-GalNAc at the non-reducing terminal (site not stated)
B1 was tested, and the Kd was 7.68 nM, the koff was 0.00129 s⁻¹ and the kon was 168000 M⁻¹ s⁻¹.
